Experimental data as given in the RNAGym collection of RNA variant scans (doi:10.1073/pnas.2313332121).
This sample holds only a part of the variants without activity.

B1: TPR 5TU (parent)
chain: GGAUCUUCUCGAUCUAACAAAAAAGACAAAUCUGCCACAAAGCUUGAGAGCAUCUUCGGAUGCAGAGGCGGCAGCCUUCGGUGGCGCGAUAGCGCCAACGUUCUCAACUAUGACACGCAAAACGCGUGCUCCGUUGAAUGGAGUUUAUCAUG

Variants of: B1
Assay: polymerase ribozyme fitness, log enrichment relative to wild type (log ratio); higher = more active; in vitro selection for triplet polymerase activity
Outline: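 Mutant libraries of both subunits of a heterodimeric triplet polymerase ribozyme were PCR-built, transcribed, and selected once in triplicate, with frozen incubation at −7 °C and capture of gel-excised extended constructs on streptavidin beads before RT-PCR. Illumina sequencing of input and output libraries was filtered to genotypes with ≥10 input reads and ≥1 read per output. Fitness is the logarithm of genotype enrichment over wild-type enrichment, using inverse-variance-weighted replicate averages. The logarithm is base 2.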

Row | Variant | polymerase ribozyme fitness (log ratio)
1 | G84U U102C C149G | ≤ -4.2
2 | G84U G100A A106U A137C | ≤ -4.2
3 | G84U U90A C108A | ≤ -4.2
4 | G84A G124A | -0.287
5 | G84A G124U | -0.556
6 | G84A C99U G100U U144A | -4.12
7 | G84U U101G G126C | -1.67
8 | C85A G112U A113C U148G | ≤ -4.2
9 | G84A C114G G124A U134C | -3.53
10 | C85U C116G | -0.942
11 | C85U C116U | -0.233
12 | C85A C149U | -1.59
13 | G84A C118A U146C | -1.34
14 | G84A G117U U139G U145C | -0.527
15 | C85G C96G | -3.49
16 | C85G C96U | -2.26
17 | G84A G94A A98C G124A | -0.811
18 | C85U A122C | -1.06
19 | G84U C96A C103U A113U | ≤ -4.2
20 | G84U U134A A142C | ≤ -4.2
21 | G84U G117U C123U G141A U146A | ≤ -4.2

Row | Variant | polymerase ribozyme fitness (log ratio)
22 | G84A C131A | -2.79
23 | G84A C131G | -3.02
24 | C85G A106G | -2.59
25 | G84U A98G | -2.89
26 | G84A C118A | -1.61
27 | G84A G100C | ≤ -4.2
28 | C85U G86C G88A U90G A121U G128A | ≤ -4.2
29 | C85G C93U C116U U127G | ≤ -4.2
30 | G83U U127A | -3.18
31 | C85U A115U G140A | -3.77
32 | G84U A121C | -1.74
33 | C85A G92U G117U | -2.26
34 | G84A A97G C129A G152A | -4
35 | G84C G92C A106U C149U | ≤ -4.2
36 | C85G C118U | -3.37
37 | C85A C96U A137U U144A | ≤ -4.2
38 | G84U C123A | -1.79
39 | G84U G86A C93U C123U | -1.15
40 | C85U C125G | -0.638
41 | C85U C125U | -0.156
42 | G84C C123G U146G | -2.7

Row | Variant | polymerase ribozyme fitness (log ratio)
43 | G84A C85U G143A | -1.63
44 | G84C C95A A142C | -1.65
45 | C85A C129G | -2.95
46 | G84U U127A U134G | ≤ -4.2
47 | G84U C116U G143C | -3.37
48 | G84U C95U | -1.23
49 | G83U U139G | -0.239
50 | C85G C99G | -4.1
51 | C85A C103G A147U | -2.48
52 | C85U C132U | -0.776
53 | G84A A97U A147U | 0.467
54 | C85A G126C U148A | -4.13
55 | C85U A150C G152U | -3.38
56 | C85G U135C A138C | ≤ -4.2
57 | C85G G94U | -0.835
58 | C85G A121G C132U | -2.88
59 | C85U A107U | -3.65
60 | G84A C93U | -1.83
61 | C85U A98U G117A | -0.373
62 | C85U A98C G117C | 0.631
63 | C85U C93G | -3.83

Row | Variant | polymerase ribozyme fitness (log ratio)
64 | C85U A115G | -2.3
65 | C85U A115U | -2.38
66 | C85G G94A C95G U135A | -3.95
67 | C85G G124A G133A | ≤ -4.2
68 | C85A A147G | -0.743
69 | G83U G94C C116U | -2.08
70 | C85G C123G U139A | ≤ -4.2
71 | C85G G92C A106C A120U A121G U134A | ≤ -4.2
72 | G84U C103U A137C | ≤ -4.2
73 | C85A U135G A137U | ≤ -4.2
74 | G84A U134G | -2.31
75 | G84A U134C | -0.573
76 | C85G C116U U144C | -3.36
77 | C85U C114G G128A | ≤ -4.2
78 | C85A G140U | -3
79 | C85A G140A | -4.18
80 | C85A C105U | -1.89
81 | G83U G143U | -1.68
82 | C85A A137G | -2.96
83 | C85A U139C U145C | ≤ -4.2
